assay: soluble on expression in E. coli; label from the status in PepcDB or PDB records

| Sequence | soluble on expression in E. coli |
| --- | --- |
| MGSDKIHHHHHHMSAPLLSVRDLSVAFHQGESQSLAVDHVSFDIAPGEILALVGESGSGKSVSAASILKLLPYPAASHPSGQILFDGRDLLTLSEPALRAVRGNDITMIFQEPMTSLNPLHSIEQQIGEILELHQSLTGDAARKRTLELLLQVGIREPEKRLSAFPHELSGGQRQRVMIAMALANRPKLLVADEPTTALDVTVQAQILELLAGLKREHGMSMLFITHDLGIVRKFADRVCVMTGGKIVESGPVEAIFANPQHAYTRKLLASEPRGVPPETDLAKPVVMEGQEIRVWFPIKAGFLRRVVDNVKAVDGVDLTLRAGQTLGVVGESGSGKTTLGLALARLISSRGRIGFLGKNIDGYSFKQMRPLRDRLQVVFQDPFGALSPRMSVGDIIAEGLRVHERGLTAAERDRRVCWALEEVGLDIATRWRYPHEFSGGQRQRIAIARAMVLKPRFVMLDEPTSALDMTVQAQVVDLLRDLQSRHDLAYLFISHDLKVVKALANDIIVMRSGKVVEQGPAQEVFTAPKQDYTKALLAAAFDLKAMNIGGVSQ | not soluble |
| MSLELAQQWTQQRQALGERDDAMAALKTLDSSYAATTVFPPKGEVSLHERAGLYQGNEVNPPLAAAYRRELETQLLPRVARMLEAQIRGNMQNRERLLNSLRAYLMLNLRERRENGWLKDWVATDWSQRYAGNGTVQNGLNTHFARLLEQPFSYPLNETLVAQARQVLRSESLANVVYRVLREQARSLPEYRFGQHLGPQAGLFVGTDYVIPGFYTQQGYQQYFVVQGASLVNDILRDNWVLGEGSGISDMDLRRLMVELEQLYFRDYANFWSEAVGRLGLLPFNDAGEGADQVSGLLAANSPILQLLLEVRENTRFPVLAESAEALAEASDKAAEKGGKLGKAAAAAAGKARDALAKNLPDTAKKSLQRRFEPLHRLLDDNNGPAADLTPLLQALNELQLQLAGLARASQPEQEGHHHHHH | soluble |
| MSLDEDAQISAVQDGFINFYADDAVTPYVALAARGPWVITLKGAVLYDAGGYGMLGFGHTPEAVLDAMARPQVMANVMTPSLAQRKLDRALRAEIGHTRGGCPFARFMCLNSGSEAVGLAARIVDTNAKLHTDPGARHAGATIKRLVVKGSFHGRTDRPGLYSDSSRKTYSKYLASYRDEDSVIAIAPYDIAALQRAFDEAARNHWFIEAVFLEPVMGEGDPGRALPAEFYAAARTLTRNHGSLLLVDSIQAGLRAHGVLSVVDYPGFEQLDPPDLETYSKALNAAQYPLSVLAVTEQAAQVYRKGTYGNTMTTNPRALDVACATLALFTPQIRDNIRLRGAQALRKLEALQAELGGLITKVQGTGLLFSCELAPQYKCYGAGSTEEWLRHHGVNVIHGGENSLRFTPHFGMDEAELDLLVGLIAKALKEGPRQAQAEAEGHHHHHH | not soluble |
| MGSDKIHHHHHHMPECSKAWAVREEPELLTDRRHTDDGGEFVSQPRIIEPAIRTLIDTPLRVGESPTWDERTGDLWFVDILAPAIFCLSPSGKLQRFDMPAQIGCLGLCQSNLIVAALKTGVHLLNPQNGELELLCDPDEGRADSRLNDGKVGPDGHFWVGTRDEADVPTGNARLYRVSSSGHVERFIDGDMLTSNGLAWSPDETRMYHSDSSGLLLQVFDFDVQTGRLGPAKRLHDFQPDEGRPDGAATDSEGCYWSAGVQAGRLNRFTPDGELFEIYKMPFKGPTMPCFGGPELKTLYVTSLVTDTNGVATSGTLVAFDAPVAGAPIHKFPL | not soluble |
| MGSDKIHHHHHHMSLKKQIPIIFENTHYFIVNKPPGIPSQPPDCRTWGRTHPNLDPTPLLERFKAIYYSHREVELCRTVHRLDHCVTGGMLIAKTKDGSVKFSRFLQKGGNNGYKLQRKYVAIVESSGRFNKPNNYEIKYGPKYNFLISHGGREITKFKEVDENCIVLQLVTGKKHQIRNHVSQILNQPILNDKRHGSTVNFPELFNDQIALHSACIITKIGLQTKTHLIPMEHNNTGQLWSRKYVNEEGEFTLPIKEVLLENWDQ | not soluble |
| RLPKKHYTDSLDYALFKELIRVSVASNNKQILDYYEHHCHKKNPATACQYGYVLALLNNNNFQKAAEKLNPLLLQDNSNLNFQIAMAQAELGLSQYQSALSRLAELQNNFPDNYAALMAYAQGLLTANQPQKATAVLLKGSRQYKEDLPLCRELARAQA | not soluble |
| MGSDKIHHHHHHMGTDSEKAIPPKVSRAAAEWLVELHSGQVGKEVREQWQAWRAAHPDHERAWQHIEMLGERLGGLSSSLAHATMAPRGSLRRRRAIKTLAMLLFAGGSAWVVQEKTPWWQLSADYSTGIGEQRRIELEDGTVVDLNSSSAINVAYTQQQRILMLLRGEMHVATASESATARPFLIASDQGSVRAFGTRFVVRQLTNEKDSPIKVGVLEGAVEVAPSEMPARVRLQAGEQLSFTRHMVTPIEPVIPHDTAWLQRMLVADDMPLGEFLAELSRYRKGSLGCDHSIKHLKVSGTYPLDDTDKVIEMLQQSLNLQVRMLTRYWVRLMPPAA | not soluble |
| TILVAIANDSVSPAVIDTAVRLADGLDEELYVVHLVDENTADGTAMQLRDEMRDRFRDATVVATVAIEHVGRSAMRSGTRIGNELLELAADVDVQHIVMGHEPKGLAGRLREGDAAVAVIDAADVPVTIVPEG | not soluble |
| MAHHHHHHMEAKAQAYLEKLSNSLQAAGRTATADVLKRAKEEFERSLWCEMTDDLLLAVRDPLVLESAYELHENVLKVTRMDMSPTAYVKLLHYICFCPNSTLQKALDLLNGAVVALSTSSEQGENMANCIRALLLLDSYNDKSSPAGTAASEASRILDKVESFIHSKQMHEVEPVLAALHCQARGKDYEIRQQYTKYYSNAFETVKSAERAEMPIIESDLLSLAYKAALSALLSEEIYNFGKFLNERHFTERLADSVQHAWILEWLRLCNDGKVEEFEQYAVAHKAEMAASPILSEFFPSITKKVRLMALLHLVFYTPFNERTFTFDVIARRCAVDEERVEPLLLAALAQGIIMGKIDGLTQEVHITWVEPRVLSLQEVKELAVHVSRWKEKTLGLMQCMKEAAQETHN | soluble |
| MADIGSTYNGPLSSHWFPEELAQWEPDSDPDAPFNRSHVPLEPGRVADRVNANADTDAHLVSLSALNRHTSGVPSQGAPVFYENTFSYWHYTDLMVYWAGSAGEGIIVPPSADVIDASHRNGVPILGNVFFPPTVYGGQLEWLEQMLEQEEDGSFPLADKLLEVADYYGFDGWFINQQTEGADEGTAEAMQAFLVYLQEQKPEGMHIMWYDSMIDTGAIAWQNHLTDRNKMYLQNGSTRVADSMFLNFWWRDQRQSNELAQALGRSPYDLYAGVDVEARGTSTPVQWEGLFPEGEKAHTSLGLYRPDWAFQSSETMEAFYEKELQFWVGSTGNPAETDGQSNWPGMAHWFPAKSTATSVPFVTHFNTGSGAQFSAEGKTVSEQEWNNRSLQDVLPTWRWIQHGGDLEATFSWEEAFEGGSSLQWHGSLAEGEHAQIELYQTELPISEGTSLTWTFKSEHGNDLNVGFRLDGEEDFRYVEGEQRESINGWTQWTLPLDAFAGQTITGLAFAAEGNETGLAEFYIGQLAVGADSEKPAAPNVNVRQYDPDPSGIQLVWEKQSNVHHYRVYKETKHGKELIGTSAGDRIYLEGLVEESKQNDVRLHIEALSETFVPSDARMIDIKSGSF | soluble |
| MRTLKIEPLTKEAFAPFGDVIETAGSDYFMINNGSTRRYHKLATVETAQPEDNAIISIFSAEKLEMPLRIRMLERHPLGSQAFIPLLGNPFLVVVAPLGDVPVPGLVRAFLTNGRQGVNYHRGVWHHPVLTIEKRDDFLVVDRSGSGNNCDEHFFTEDEQLLLDPQSNQLEHHHHHH | not soluble |
| MSLSKNRNIIEGRILSFDKSPFSKDFDLSSLKIDKKRIFIIDGIIESIEPVNFINPEFQDIEIIDYGDHLISAGFVDAHVHYPQTAIVASWGKRLIDWLNTYTFPEEMRFSNLNYASEIAARYIDFSLSNGTTTMASYCTIHPESVDAFFKSAAVKNMCVVGGKTCMDRNAPGDLCDSAKSAYDDSKALLQKWHHKGRAHYAITPRFSPTSTPDQLLALGSLWSEFPGCLMQTHLSEQVDEIDWVRKLFPNARDYLDTYETFGLLGERGVYGHAIHLEAREIDRLSEVGASLIHCPTSNTFIGSGLFNMEDLTSRSLKVGLASDIGGGSSFSMLRTMAGAYEVAQLRGLALHPSQLMWLATQGSAKALHLDNQIGNIAPGMAADLVVLDLSSTPTISQRSARANDVWEELFPTIMMGDDRAIAATYVAGKKIEGHHHHHH | soluble |
| MCTVSLCVSLCLWMHNETVQVAMALEFKDKWLEQFYEDDKRHRLIPSSIENALFRKLEILDAAQAESDLRIPPGNRFEHLEGNLKGWCSIRVNKQYRLIFQWVDGVALNTYLDPHKY | not soluble |
| MAKSYDYQSAFDIIGPVMMGPSSSHTAGAVKIGNSARAVLGDMPKHIEIRYYESFAKTHQGHGTDVAIVGGAMGYSTFDSRIKSSLDIAKDENITIDIIEDEGESIGQHPNCAYIKANTKDGRYIEVIGISIGGGTIKLKGINVNGLNVELNHGLPMLVIDGNMNKAKINHLINDLSDMDLDLGEELIETNDNEGLVVFPLNKAISESALNIIKDKHSDLNVSYIK | not soluble |
| MADDGPIIEEIAEKNGRVARIMQRLQHDTQRVTSVPGFNTSATGYADLIALLDQYKNDLEAVGFNDLEQARRRAPSVDITVGSNSTNLVDYSHGRHDMPSHRRHDSSDEEITAANSHHQSPINVGNRNDTDGTNGRNGSRAGSSSSDRVRMIAGRNRISKTRRYRPGQKALEEIRKYQESEDLLIPKAPFARLVREIMQTSTPFSSDLRIRSDAINALQEASEALLVQMFDGSSLISAHSKRATLTTTDVQLYRRLCLPNL | not soluble |
| SNAMEKYILSIDQGTTSSRAILFNQKGEIAGVAQREFKQYFPQSGWVEHDANEIWTSVLAVMTEVINENDVRADQIAGIGITNQRETTVVWDKHTGRPIYHAIVWQSRQTQSICSELKQQGYEQTFRDKTGLLLDPYFAGTKVKWILDNVEGAREKAENGDLLFGTIDTWLVWKLSGKAAHITDYSNASRTLMFNIHDLEWDDELLELLTVPKNMLPEVKASSEVYGKTIDYHFYGQEVPIAGVAGDQQAALFGQACFERGDVKNTYGTGGFMLMNTGDKAVKSESGLLTTIAYGIDGKVNYALEGSIFVSGSAIQWLRDGLRMINSAPQSESYATRVDSTEGVYVVPAFVGLGTPYWDSEARGAIFGLTRGTEKEHFIRATLESLCYQTRDVMEAMSKDSGIDVQSLRVDGGAVKNNFIMQFQADIVNTSVERPEIQETTALGAAFLAGLAVGFWESKDDIAKNWKLEEKFDPKMDEGEREKLYRGWKKAVEATQVFKTE | soluble |
| MAHHHHHHMATISRRDGRTAREMRGKELRTSDLSQFDGSAWYSQGLTAVTVAINGPTAARQENYRRCTTCIHVNRAARIPQEGGTGRLIMMERRERERCEDGELKQFLTSLVEAIVCLDRFPRCVLEAHVTVLMDDGALFAVASNAIMCALLDAGVPCRSTIAAVSLIMCNPEASGNEGEPEIFLDPTAVEESTDEVRSYASATFVLTNTGGEAVLASRVQARPRSSAYSRPITPKDLSRMFALAAKAAETLFVFFRNCSMALE | not soluble |
